From the supplement of paper PMC11316812
± gives the standard deviation of the averaged measurements.

Legend:
hTERT-HMEC = assay: percentage of EdU-negative (G0-arrested) nuclei per well, 72 h; higher = more G0 arrest; conditions: reference: sequence is the full UniProt precursor, the tested protein was the secreted form or ectodomain
MCF7 = assay: as above; conditions: reference: sequence is the full UniProt precursor, the tested protein was the secreted form or ectodomain
[1] = protein concentration 0.0059525 µM
[2] = protein concentration 0.059525 µM
[3] = protein concentration 0.0225 µM
[4] = protein concentration 0.0197775 µM
[5] = protein concentration 0.197775 µM
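Note: secreted proteins added to cultured cells, EdU pulse at the end, nuclei found by Hoechst imaging, EdU status from nuclear versus surrounding ring intensity ratio, PBS as neutral control.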

Sequence | percentage of EdU-negative (hTERT-HMEC; [3]) [%] | percentage of EdU-negative (hTERT-HMEC; protein concentration 0.225 µM) [%] | percentage of EdU-negative (MCF7; [3]) [%] | percentage of EdU-negative (MCF7; protein concentration 0.225 µM) [%] | also measured
MGVPFFSSLRCMVDLGPCWAGGLTAEMKLLLALAGLLAILATPQPSEGAAPAVLGEVDTSLVLSSMEEAKQLVDKAYKERRESIKQRLRSGSASPMELLSYFKQPVAATRTAVRAADYLHVALDLLERKLRSLWRRPFNVTDVLTPAQLNVLSKSSGCAYQDVGVTCPEQDKYRTITGMCNNRRSPTLGASNRAFVRWLPAEYEDGFSLPYGWTPGVKRNGFPVALARAVSNEIVRFPTDQLTPDQERSLMFMQWGQLLDHDLDFTPEPAARASFVTGVNCETSCVQQPPCFPLKIPPNDPRIKNQADCIPFFRSCPACPGSNITIRNQINALTSFVDASMVYGSEEPLARNLRNMSNQLGLLAVNQRFQDNGRALLPFDNLHDDPCLLTNRSARIPCFLAGDTRSSEMPELTSMHTLLLREHNRLATELKSLNPRWDGERLYQEARKIVGAMVQIITYRDYLPLVLGPTAMRKYLPTYRSYNDSVDPRIANVFTNAFRYGHTLIQPFMFRLDNRYQPMEPNPRVPLSRVFFASWRVVLEGGIDPILRGLMATPAKLNRQNQIAVDEIRERLFEQVMRIGLDLPALNMQRSRDHGLPGYNAWRRFCGLPQPETVGQLGTVLRNLKLARKLMEQYGTPNNIDIWMGGVSEPLKRKGRVGPLLACIIGTQFRKLRDGDRFWWENEGVFSMQQRQALAQISLPRIICDNTGITTVSKNNIFMSNSYPRDFVNCSTLPALNLASWREAS |  |  |  |  | percentage of EdU-negative (hTERT-HMEC; [1]): 5.02 ± 0.23%; percentage of EdU-negative (hTERT-HMEC; [2]): 4.74 ± 0.28%; percentage of EdU-negative (MCF7; [1]): 24.8 ± 1.3%; percentage of EdU-negative (MCF7; [2]): 26.8 ± 0.65%
MAWPLCTLLLLLATQAVALAWSPQEEDRIIEGGIYDADLNDERVQRALHFVISEYNKATEDEYYRRLLRVLRAREQIVGGVNYFFDIEVGRTICTKSQPNLDTCAFHEQPELQKKQLCSFQIYEVPWEDRMSLVNSRCQEA | 4.46 ± 0.44 | 5.26 ± 0.68 | 25.7 ± 2.2 | 24 ± 0.52 | 
MDPGLQQALNGMAPPGDTAMHVPAGSVASHLGTTSRSYFYLTTATLALCLVFTVATIMVLVVQRTDSIPNSPDNVPLKGGNCSEDLLCILKRAPFKKSWAYLQVAKHLNKTKLSWNKDGILHGVRYQDGNLVIQFPGLYFIICQLQFLVQCPNNSVDLKLELLINKHIKKQALVTVCESGMQTKHVYQNLSQFLLDYLQVNTTISVNVDTFQYIDTSTFPLENVLSIFLYSNSD | 4.46 ± 0.73 | 6.03 ± 0.4 | 28 ± 0.99 | 27.5 ± 1.8 | 
MALLWGLLVLSWSCLQGPCSVFSPVSAMEPLGRQLTSGPNQEQVSPLTLLKLGNQEPGGQTALKSPPGVCSRDPTPEQTHRLARAMMAFTADLFSLVAQTSTCPNLILSPLSVALALSHLALGAQNHTLQRLQQVLHAGSGPCLPHLLSRLCQDLGPGAFRLAARMYLQKGFPIKEDFLEQSEQLFGAKPVSLTGKQEDDLANINQWVKEATEGKIQEFLSGLPEDTVLLLLNAIHFQGFWRNKFDPSLTQRDSFHLDEQFTVPVEMMQARTYPLRWFLLEQPEIQVAHFPFKNNMSFVVLVPTHFEWNVSQVLANLSWDTLHPPLVWERPTKVRLPKLYLKHQMDLVATLSQLGLQELFQAPDLRGISEQSLVVSGVQHQSTLELSEVGVEAAAATSIAMSRMSLSSFSVNRPFLFFIFEDTTGLPLFVGSVRNPNPSAPRELKEQQDSPGNKDFLQSLKGFPRGDKLFGPDLKLVPPMEEDYPQFGSPK |  |  |  |  | percentage of EdU-negative (hTERT-HMEC; [4]): 4.44 ± 1.1%; percentage of EdU-negative (hTERT-HMEC; [5]): 10.5 ± 1%; percentage of EdU-negative (MCF7; [4]): 24.1 ± 0.71%; percentage of EdU-negative (MCF7; [5]): 29.1 ± 1.3%
MARRSRHRLLLLLLRYLVVALGYHKAYGFSAPKDQQVVTAVEYQEAILACKTPKKTVSSRLEWKKLGRSVSFVYYQQTLQGDFKNRAEMIDFNIRIKNVTRSDAGKYRCEVSAPSEQGQNLEEDTVTLEVLVAPAVPSCEVPSSALSGTVVELRCQDKEGNPAPEYTWFKDGIRLLENPRLGSQSTNSSYTMNTKTGTLQFNTVSKLDTGEYSCEARNSVGYRRCPGKRMQVDDLNISGIIAAVVVVALVISVCGLGVCYAQRKGYFSKETSFQKSNSSSKATTMSENDFKHTKSFII | 5.13 ± 0.27 | 4.52 ± 0.093 | 24.2 ± 0.62 | 25.4 ± 2.1 | 
MVPKLFTSQICLLLLLGLMGVEGSLHARPPQFTRAQWFAIQHISLNPPRCTIAMRAINNYRWRCKNQNTFLRTTFANVVNVCGNQSIRCPHNRTLNNCHRSRFRVPLLHCDLINPGAQNISNCTYADRPGRRFYVVACDNRDPRDSPRYPVVPVHLDTTI |  |  |  |  | percentage of EdU-negative (hTERT-HMEC; protein concentration 0.022 µM): 5.32 ± 0.8%; percentage of EdU-negative (hTERT-HMEC; protein concentration 0.22 µM): 6.25 ± 2.1%; percentage of EdU-negative (MCF7; protein concentration 0.022 µM): 26.3 ± 2.1%; percentage of EdU-negative (MCF7; protein concentration 0.22 µM): 25.35 ± 0.13%
MKENYCLQAALVCLGMLCHSHAFAPERRGHLRPSFHGHHEKGKEGQVLQRSKRGWVWNQFFVIEEYTGPDPVLVGRLHSDIDSGDGNIKYILSGEGAGTIFVIDDKSGNIHATKTLDREERAQYTLMAQAVDRDTNRPLEPPSEFIVKVQDINDNPPEFLHETYHANVPERSNVGTSVIQVTASDADDPTYGNSAKLVYSILEGQPYFSVEAQTGIIRTALPNMDREAKEEYHVVIQAKDMGGHMGGLSGTTKVTITLTDVNDNPPKFPQSVYQMSVSEAAVPGEEVGRVKAKDPDIGENGLVTYNIVDGDGMESFEITTDYETQEGVIKLKKPVDFETKRAYSLKVEAANVHIDPKFISNGPFKDTVTVKISVEDADEPPMFLAPSYIHEVQENAAAGTVVGRVHAKDPDAANSPIRYSIDRHTDLDRFFTINPEDGFIKTTKPLDREETAWLNITVFAAEIHNRHQEAKVPVAIRVLDVNDNAPKFAAPYEGFICESDQTKPLSNQPIVTISADDKDDTANGPRFIFSLPPEIIHNPNFTVRDNRDNTAGVYARRGGFSRQKQDLYLLPIVISDGGIPPMSSTNTLTIKVCGCDVNGALLSCNAEAYILNAGLSTGALIAILACIVILLVIVVLFVTLRRQKKEPLIVFEEEDVRENIITYDDEGGGEEDTEAFDIATLQNPDGINGFIPRKDIKPEYQYMPRPGLRPAPNSVDVDDFINTRIQEADNDPTAPPYDSIQIYGYEGRGSVAGSLSSLESATTDSDLDYDYLQNWGPRFKKLADLYGSKDTFDDDS | 5.18 ± 0.56 | 9.88 ± 1.5 | 25.4 ± 0.51 | 32.3 ± 2 | 
MTLFPVLLFLVAGLLPSFPANEDKDPAFTALLTTQTQVQREIVNKHNELRRAVSPPARNMLKMEWNKEAAANAQKWANQCNYRHSNPKDRMTSLKCGENLYMSSASSSWSQAIQSWFDEYNDFDFGVGPKTPNAVVGHYTQVVWYSSYLVGCGNAYCPNQKVLKYYYVCQYCPAGNWANRLYVPYEQGAPCASCPDNCDDGLCTNGCKYEDLYSNCKSLKLTLTCKHQLVRDSCKASCNCSNSIY | 4.68 ± 0.23 | 4.83 ± 0.81 | 24.2 ± 0.4 | 27.5 ± 3 | 
